From the supplement of paper PMC9170038

These sequences were tested on MS2 coat protein (assay: apparent KD of MS2 coat protein; higher = weaker reporter binding). Settings: Eterna round: R107; input ligand: arginine 13.2 mM.
Description: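 RNA-MaP round R107: designed RNA switches with theophylline, tryptophan, arginine or FMN aptamers are transcribed on-chip within common flanks. They are titrated with SNAP-549-labelled MS2 coat protein in RNA-MaP buffer (100 mM Tris pH 7.5, 80 mM KCl, 4 mM MgCl2), without ligand or with the indicated ligand. Median apparent KD per design.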

Sequence	apparent KD of MS2 coat protein [nM]
AAGGACAUGAGGAUCACCCAUGUAGAGGAGCGAGGACCGGUACGGCCGCCACUCGGUGACAUUCGAUAAUGCCGAAUAAGACAUC [theeternabot_sameState_MS2_Trp_A_47]	26.8
UGUUUUUAUCGAAGGAGCGCCGCAUGAGGAUCACCCAUGCACAUGAGGAUCACCCAUGUCUGGCAGGUAGGUCGCGAUCAAUGGG [Same State Arginine B GF 11]	33.7
GCUGCCAUACGAAGGAGCGCUGUUGCAAUGAGGCGAACAUGAGGAUCACCCAUGUGGCAAAAGCAGGUAGGUCGCGUAUGGCAGC [EAB #17]	20.4
AUGACUAACAAAGAAGAUAAAAUGGGUGAACGAGGACCGGUACGGCCGCCACUCGGACAUGAGGAUCACCCAUGUCCAUGUGCAA [#23 Exclusion Tryptophan A]	15.6
ACGUAGAAGUCGGCCGCCACUGAUUUCAUGUUCAACAUGAGGAUCACCCAUGUACCUUAUGUUAACAGGACCGGGACGUAUACGA [JR_SSTryptoB_Sub001]	228
AACAUGAGGAUCACCCAUGUUGUAAGGGAAGGAGCGCCUAAUCAGGCAGGUAGGUCGCCCAACAUGAGGAUCACCCAUGUUGUAU [Exclusion Arginine A 2]	38.9
CAAAUAGACCACGAUACCAGAACACAAGGAGUAAUAUCAAACAUGAGGAUCACCCAUGUCUUCCCUUGGCAGCGUAGCACGGAGU [theeternabot_exclusion_MS2_Theo_B_23]	13.5
CUCCCGUGGUCGGCCGCCACUGGAGGCCUCGCGCGACAUGAGGAUCACCCAUGUUGGCCCGGCCUCAGGACCGGGAUCGCGUGAG [#1 Same State - Tryptophan B Attempt #7 (HarryS)]	11.2
CGAUAUAAGACGGCCGCCACUAUUAAGUAACAAAAUAAACAUGAGGAUCACCCAUGUACAUGGGAUAGGACCGGGUCCAAUAACG [A1]	48.3
UGACAUUGCUGCGAUACCAGACAUGAGGAUCACCCAUGUACCAAGGUACCCGAAAGGAAUGUCCCUUGGCAGCGCAGCAAUGUCU [MAT - Exclusion Theophlline B - Mod of Eli - D18]	10.6
GGGCGCGUGGACUGGCGUGCUCCGCUCCGUCGAGGACCGGUACGGCCGCCACUCGACAUGAGGAUCACCCAUGUGUGAGCUCGCG [#1 Exclusion - Tryptophan A Attempt #17 (HarryS)]	62.9
UUAUAAGUACCGGUCCUCAGAUCCUCAUGACGAGGACCGGUACGGCCGCCACUCGAAACAUGAGGAUCACCCAUGUAAUAAUAUC [Brourdmod09]	20.6
UUUGACGGCGAUCUGGGUUUACCAGAUCGGCGAGGACCGGUACGGCCGCCACUCGUGUUUCUUUGACAUGAGGAUCACCCAUGUA [whbob_SS_trypto A_f2]	38.4
GAUGAACUAUUCGAUACCAGACCACAUGAGGAUCACCCAUGUGUGUUUCGUCCUUAGCCGGUCCCUUGGCAGCGAAUAGUUUAUC [#28 Exclusion-TheophyllineB]	25.8
AUCCUUAAUAGGGUAAAUGGAUAAAGUGAUACCAGUCAAAUACAAGACCCUUGGCAGCACAAGGACAUGAGGAUCACCCAUGUCA [Same State Theophylline A GF21]	20.9
AUCGUACCUGAGGAUACCAGCAUGUGAUCAUAACAUGAGGAUCACCCAUGUAAUCAGUGAUGCCCUUGGCAGCUUGAUCGGUACA [Same State - Theophylline B (Freestyle 11)]	53.4
UUGUUGUUUGGAAGGAGCGUGGAUGAGUGUGGACAUGAGGAUCACCCAUGUUGGAUGAUACCGCAGGUAGGUCGCCGGGUGGUGG [11.aD]	89.7
AUGGACGACGAUCUGGGAAAACCAGAUCGACGAGGACCGGUACGGCCGCCACUCGUGUUUAUUUAACAUGAGGAUCACCCAUGUA [#13 Tryptophan A Same State]	34

Sequence	apparent KD of MS2 coat protein [nM]
GAUGAACUAUAUGAUACCAGACAACAUGAGGAUCACCCAUGUGAAAGUCGUCCUCUGCCUGUCCCUUGGCAGCGUAUAGUUUAUC [XTheo B #14]	61.1
GCUGCUUUGGGAAGGAGCGCUGCGGUAUUGUGGCGGACAUGAGGAUCACCCAUGUGCCUGCAGCAGGUAGGUCGCUUAGGGCAGC [EAP NP+V+V2 #17]	54
CGCCUACAGGUGUACUAUUGUGGUGAAGAUACCAGAUAGCCCAAUAUCCCUUGGCAGCUUCAGACAUGAGGAUCACCCAUGUAUC [theeternabot_exclusion_MS2_Theo_A_30]	17.8
AAUAUAUAGACGGCCGCCACUGGAAUUAAUACAUGAGGAUCACCCAUGUGAAGAGGAUAAUAACACAGGACCGGGUCUUCAUGUA [SS Tryp B Tesla 1.2]	68.5
GUGUUUGUGUGAGAUACCAGUGAGGCCACAUGAGGAUCACCCAUGUCCCUCACUCCGGCCCACCCUUGGCAGCUCUUAUAGUAGU [Exclusion Theophylline B GF 23]	9.34
AGAACAAAACUAAAUAAACAACUGGGUGAUACCAGCACAUGUGCGUGCCCUUGGCAGCAUCCGGCCACAUGAGGAUCACCCAUGU [Inarar]	42.6
CCGCACAUGAGGAUCACCCAUGUCAGGGAUACCAGCCCAGACAUGGGCCCUUGGCAGCUUUGUAGCUGACGAAAGUCAGCAGCGG [Omei Theo A SS A v2]	17.6
GUUAUAACAAAAGUUGUAACAGUGGGUGAACGAGGACCGGUACGGCCGCCACUCGGACAUGAGGAUCACCCAUGUCCAUGUGAAA [AstrosExyTryA#15]	14.1
AAGAACCAGACGGCCGCCACUGGCCAGACAGGGUUCAUGGAAACAUGAGGAUCACCCAUGUCUUCCAGGACCGGGUCUGAAGAGG [Esbiisin]	8.61
CGGUUUGUGAUGGAUACCAGCAGAGAAAAUGUUUAUCCUAACAUGAGGAUCACCCAUGUAUGCCCUUGGCAGCUGUUGUGGGCUG [8.V]	43.3
UGUAUGUGAUCUGAUACCAGCGAUGAUAACCUGAGGAUCACCCUGGUAUGGCGAAAGCCUCGCCCUUGGCAGCAGAUCGCAUACU	184
UGGCAAGAGGGAAGGAGCGUCAGCUGAGUCACAUGAGGAUCACCCAUGUCGCACAUAGUGUGACAGGUAGGUCGCCCUCUGCCGU [Vesosocera]	70
GUUAUAGACGGAAGGAGCGCGGCCACAUGAGGAUCACCCAUGUAUUGUGUUGGUAAUAGGUCGCAGGUAGGUCGCCGAUUAAUGA [Same State - Arginine B / A]	35.9
UCCUCCUCCGCAAGGAGGAGGAGUUGCGAUACCAGCACGGUAACGUGCCCUUGGCAGCGCACAUGAGGAUCACCCAUGUCAUGUU [#1 Exclusion - Theophylline A Attempt #11 (HarryS)]	15
UCGCCCAGGUAGGCUUAAUGGGAUAUGGAAGGAGCGCUGAUGCCAGCAGGUAGGUCGCCAACGGACAUGAGGAUCACCCAUGUAC [Same State - Arginine A (Freestyle 4)]	24.7
UUAAUCUUAUAUGAAAACAUAUAAGCAGAAGGAGCGUGAUAAAACACAGGUAGGUCGCUGAAGGGAACAUGAGGAUCACCCAUGU [AstrosSSArgA#4]	22.7
UAUCCACAUGAGGAUCACCCAUGUAGGGAAGGAGCGGUGAUUUCACCAGGUAGGUCGCCUUACUGAGGAGAACCGGUGGAAUCGU [Exclusion - Arginine A (Freestyle 30)]	45.5
